Here are results for three molecules from patent US20050010028A1 (KEIO UNIVERSITY, published 2005).

B1: Rhodamine green-labeled c-Fos (other, UniProt P01101 118-211, looked up)
chain: GRAQSIGRRGKVEQLSPEEEEKRRIRRERNKMAAAKCRNRRRELTDTLQAETDQLEDEKSALQTEIANLLKEKEKLEFILAAHRPACKIPDDLG
modifications: C-terminus joined through puromycin to a rhodamine green modifying agent that also carries biotin or iminobiotin (Modifying agent 22 or 23; which one in the FCCS sample is not stated)
notes: also called Rh-Fos; rhodamine green-modified c-fos; not shown: T7 tag at the N-terminus; C-terminal polyhistidine tag
B2: Cy5-labeled c-Fos (other, UniProt P01101 118-211, looked up)
chain: B1 chain
modifications: C-terminus joined through puromycin to a Cy5 modifying agent that also carries biotin or iminobiotin (Modifying agents 24-26; Modifying agent 25 in FIGS. 14 and 15; the agent used in the FCCS sample is not stated)
notes: also called Cy5-Fos; not shown: T7 tag at the N-terminus; C-terminal polyhistidine tag
B3: streptavidin-fused Fos protein (other, UniProt P01101 118-211, looked up)
chain: B1 chain
notes: From plasmid pSP6-STA-Fos (pET20b backbone), spotted as translation solution on a biotin-coated slide; also called STA-Fos; STA-Fos(F); not shown: T7 tag at the N-terminus of streptavidin; streptavidin, gene amplified from the Streptomyces avidinii genome

One assay concerns the target T1, Cy5-labeled c-Jun (mouse, UniProt P05627 216-318, C-terminus joined through puromycin to a Cy5 modifying agent that also carries biotin or iminobiotin (Modifying agents 24-26; Modifying agent 25 in FIGS. 14 and 15; the agent used in the FCCS sample …).
T1 construct: also called Cy5-Jun; Cy5-modified c-Jun; not shown: T7 tag at the N-terminus; C-terminal polyhistidine tag
The assay is described as follows: fluorescence cross-correlation spectroscopy in solution, 10 nM each of the two labelled proteins and AP-1 double-stranded DNA. As to the method:
(§1) Intermolecular interactions were analyzed by fluorescence cross-correlation spectroscopy using fluorescence-labeled c-Fos and c-Jun as well as AP-1 sequence double-stranded DNA. DNA and the modified proteins (at a final concentration of 10 nM each) were mixed. 10 μl of this sample was applied to an 8-well glass chamber (Nunc), and fluorescence cross-correlations were measured by using a fluorescence correlation spectrometer, ConfoCor2 (Car1 Zeiss). […] Based on the above, it was confirmed that proteins labeled with fluorescence according to the present invention could be used to detect protein interactions by using a fluorescence cross-correlation spectroscopy and further could be utilized for convenient and quick measurement of dissociation constant.

The target in assay [1] is B1. Nature of the assay: fluorescence cross-correlation spectroscopy in solution, Cy5-Fos + Rh-Fos + AP-1 DNA. The method, then:
as §1

Assay [2] deals with T2, Fos modified with TAMRA-dC-puromycin (Modifying agent 19) (mouse, UniProt P01101 118-211, C-terminus joined to TAMRA-dC-puromycin (Modifying agent 19)).
T2 construct: also called C-terminal fluorescence-labeled Fos; Fos protein having 12 His tags
Nature of the assay: protein microarray: STA-Fos on a biotin plate, labelled Fos in solution, fluorescence scan.

T1 sequence (P05627 216-318): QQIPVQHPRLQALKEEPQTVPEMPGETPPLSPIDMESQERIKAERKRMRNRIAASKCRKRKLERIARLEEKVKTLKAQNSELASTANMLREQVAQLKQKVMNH

What is called Kd is the equilibrium constant for the complex coming apart. Low values mean higher affinity, high ones lower affinity. As to B1, the Kd in the assay with Cy5-labeled c-Jun was roughly 10 nM.
As for B2, in assay [1], the binding result was “no binding (tested: 10 nM each)”.
As for B3, the binding result in assay [2] is reported as “no binding”.
